Data: US20220241369A1, “COMPOSITIONS AND METHODS OF MODULATING INFLAMMATION” (La Jolla Institute for Allergy and Immunology, priority 2018, published 2022)

How the values were obtained:
[1] = system: OVA-induced food allergy (allergic diarrhea); assay: Therapeutic i.v. treatment with HRF inhibitor after allergic diarrhea is established; assay type: in vivo, mouse; conditions: i.v. 30 μg twice
Protocol: FIGS. 5A-5F show therapeutic treatment with HRF inhibitor ameliorates the severity of food allergy. Mice were sensitized and i.g. challenged with OVA. By the seventh OVA challenge, all the mice suffered diarrhea. These mice were pretreated i.v. with 30 μg of HRF-2CA (2CA) or PBS (OVA) before challenged with OVA two more times. (FIG. 5A) Procedure scheme. (FIG. 5B) Diarrhea severity (n=11 for OVA, n=13 for HRF-2CA and n=4 for non-sensitized control (not shown); pooled data of two independent experiments). ***: p<0.001 by two-way ANOVA. (FIG. 5C) Total and OVA-specific IgE and IgG1 concentration in sera were measured by ELISA. (FIG. 5D) mMCP-1 in sera was measured by ELISA. (FIG. 5E) Sections of jejunum were stained with chloroacetate esterase. (FIG. 5C—FIG. 5E) *, **, ***: p<0.05, p<0.01, p<0.001 by Student's t-test. (FIG. 5F) Similar i.v. therapeutic treatment of allergic mice was conducted with 30 μg of synthetic N19 peptide (n=12 for OVA and n=12 for pepN19; pooled data of two independent experiments). […] by two-way ANOVA.
Mice were i.p. sensitized with OVA (50 μg/mouse) plus alum on days 0 and 14. From day 28, mice were i.g. challenged with OVA (25 or 50 mg) or PBS (control) three times a week. Before each challenge, mice were starved for 3 h, then i.g. pretreated with GST, GST-N19 (100 μg/mouse), synthetic N19 peptide, or HRF-2CA. The development of diarrhea was monitored for 90 min after OVA challenge. Diarrhea severity (30) was based on states of stool: solid (score 0), funicular (score 1), slurry (score 2), and watery (score 3).
Applicant next tested whether HRF inhibitors modulate food allergy after diarrhea has begun. […] One cohort of mice was intravenously (i.v.) treated twice with PBS followed by OVA challenge, and the other were i.v. treated twice with 30 μg of HRF-2CA followed by OVA challenge (FIG. 5A).

[2] = system: OVA-induced allergic diarrhea; assay: Food allergy experiments in WT and FceRIa-/-, FcgRIIB-/-, Enpp3-/- mice; assay type: in vivo, mouse; conditions: WT and mutant mice, via FcεRI
Text: FIGS. 10A-10C show HRF-2CA suppresses allergic diarrhea via FcεRI. WT and mutant mice were subjected to food allergy experiments as described in the FIG. 1 legend. FceRIa^−/− (n=4-5 each for group with sensitization and n=3 each for unsensitized group (Cont; no diarrhea was observed))(FIG. 10A), FcgRIIB^−/− (n=9-10 each for groups with sensitization and n=4-5 each for unsensitized groups (Cont; no diarrhea was observed); pooled data of two independent experiments) (FIG. 10B), and Enpp3^−/− (n=9-10 each for groups with sensitization and n=7 each for unsensitized groups (Cont; no diarrhea was observed); pooled data of two independent experiments) (FIG. 10C) mice along with WT mice were used. *, ***: p<0.05, p<0.001 by Student's t-test.
BALB/c mice were bred in the animal facility of RIKEN IMS. Frozen zygotes of FceRIa^−/− mice were donated by Takashi Saito (RIKEN IMS) and bred at RIKEN IMS. FcgRIIB^−/− mice provided by Toshiyuki Takai (Tohoku University) were also bred at RIKEN IMS. Food allergy experiments with Enpp3^−/− mice were conducted at Osaka University. All genetically modified mice were backcrossed to BALB/c background for more than ten generations.
Mice were i.p. sensitized with OVA (50 μg/mouse) plus alum on days 0 and 14. […] The development of diarrhea was monitored for 90 min after OVA challenge. […]

B1: HRF-2CA-His6, a monomeric mutant of mouse HRF (protein)
chain: MIIYRDLISHDELFSDIYKIREIADGLALEVEGKMVSRTEGAIDDSLIGGNASAEGPEGEGTESTVVTGVDIVMNHHLQETSFTKEAYKKYIKDYMKSLKGKLEEQKPERVKPFMTGAAEQIKHILANFNNYQFFIGENMNPDGMVALLDYREDGVTPFMIFFKDGLEMEKAHHHHHH
[1]; after diarrhea by the 7th OVA challenge
  clinical scores (diarrhea severity, severity of food allergy): significantly reduced
[1]; therapeutic
  mucosal mast cells: did not reduce
  serum mMCP-1 levels: modestly but significantly reduced
  total IgE, IgG1: did not reduce
[2]
  allergic diarrhea: suppresses
